The source of these data is US20220235143A1 (Memorial Sloan Kettering, published 2022).

In test [1] the target is T1, MUC16 peptide-2 glycopeptide (human, also: glycopeptide, glycan and its site not given here).
T1 peptide: TLDRSSVLVDGYSPNRNE
The test can be described thus: SPR, BIAcore X100, peptide-2 glycopeptide over antibody captured by anti-IgG. The protocol: Ligand capture was performed by flowing the humanized anti-Muc16 antibodies 18C6 H1L1, 18C6 H1L2, 18C6 H2L1, 18C6 H2L2) and the parental 18C6 mouse antibody onto the respective chips under saturating conditions. The MUC16 peptide-2 was then flowed over at the various test concentrations (150 nM, 75 nM, 37.5 nM, 18.8 nM, and 9.4 nM). The assay conditions used for measuring the effects of the glycopeptide were as follows: association time of 2 minutes, disassociation time of 10 min, and a flow rate of 30 μl per minute.
In general terms: In SPR one partner is held on a chip, and binding of the other changes the refractive index at the surface.

In test [2] the target is T2, MUC16 c114 expressed on transfected SKOV3 cells (SKOV3^c114) (human).
T2 construct: also called deltaMUC16c114; c114 peptide
T2 chain: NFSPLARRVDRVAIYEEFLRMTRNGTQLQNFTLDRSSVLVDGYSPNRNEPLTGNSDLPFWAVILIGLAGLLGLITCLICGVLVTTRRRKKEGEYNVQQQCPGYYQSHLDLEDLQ
In words: flow cytometry, PE-Texas Red axis 10^0 to 10^5, secondary antibody detection; untransfected SKOV3 Cells + DFO-hu4H11 + Sec Ab lie with their controls below about 5 x 10^2. (A flow cytometer gives signals particle by particle.)

Test [3] deals with T3, biotinylated MUC16 peptide-2 (human, also: biotinylated (position not given here)).
T3 construct: Captured on streptavidin sensor (SPR) or streptavidin magnetic beads (radioligand assays); also called biotinylated peptide-2
T3 peptide: TLDRSSVLVDGYSPNRNE
The test can be described thus: SPR, BIAcore X100, single cycle kinetics, antibody over captured biotinylated peptide-2. As for the experimental part:
The relative binding affinities of 4H11 humanized antibodies (H1L1, H1L2, H2L1, H2L2) were compared by surface plasmon resonance using a BIACore-X100 instrument with a Biotin CAP Chip (GE Healthcare). The assay format consisted of capturing the biotinylated MUC16 peptide-2 ([…]; SEQ ID NO: 52) onto a streptavidin coated sensor and flowing over the antibody at various concentrations using single cycle kinetics. Ligand capture was performed by flowing 0.5 μg/ml of biotinylated MUC16 peptide-2 at a rate of 5 μl per minute for 65 seconds. The 4H11 humanized antibodies were then flowed over at the various test concentrations (150 nM, 75 nM, 37.5 nM, 18.8 nM, and 9.4 nM). The assay conditions used for measuring the effects of the added antibodies were as follows: association time of 2 minutes, disassociation time of 10 min, and a flow rate of 30 μl per minute.

The target of test [4] is T2, MUC16 c114 expressed on transfected …. The test can be described thus: FACS, geometric mean PE fluorescence, SKOV3 c114 transfectant cells, mouse anti-human IgG1-Fc-PE detection; same antibody on vector control SKOV3 phrGFP about 170, at the level of secondary alone (about 170). The protocol: (§1) In a separate experiment, full-length humanized 4H11 antibodies (IgG1-Fc) comprising different combinations of humanized heavy and light chain variable regions of the 4H11 antibody were assayed. An anti-human IgG1-Fc-PE antibody was employed for fluorescent staining of MUC16-positive OVCAR3 or SKOV3 transfectant cells expressing MUC16 peptides. FIGS. 10A and 10B provide data for mean PE fluorescence and percentage PE positive cells for the 4H11 H1L1, H1L2, H2L1 and H2L2 antibodies assayed.

Test [5] has the same target. The test can be described thus: FACS, geometric mean PE fluorescence, SKOV3 c114 transfectant cells, mouse anti-human IgG1-Fc-PE detection; same antibody on vector control SKOV3 phrGFP about 200, secondary alone about 170. As for the experimental part: as §1

Where no end group is shown, it is not given here.

B1: 18C6 H1L1 humanized antibody (antibody, human IgG1, kappa, V domains shown)
VH: QVTLKESGPGILQPTQTLTLTCTFSGFSLSTVGMGVGWSRQPSGKGLEWLAHIWWDDEDKYYNPALKSRLTITKDTSKNQVFLKITNVDTADTATYYCTRIGTAQATDALDYWGQGTLVTVSS
VL: DIVMTQSAPSVPVTPGESVSISCRSSKSLLHSNGNTYLYWFLQKPGQSPQRLIYYMSNLASGVPDRFSGRGSGTDFTLKISRVEAEDVGVYYCMQSLEYPLTFGGGTKLEIKR
notes: also called H1L1 humanized 18C6 antibody
In the case of B1, in test [1], the Kd – broadly, the free concentration of one partner at which half of the binding sites on the other are occupied at equilibrium, for simple one-to-one binding – stood at 6.7 nM; the koff – broadly, the first-order rate constant of dissociation – is 0.0019 s⁻¹; the kon (in general, the rate constant with which the complex forms) stood at 287000 M⁻¹ s⁻¹.

B2: 18C6 H1L2 humanized antibody (antibody, human IgG1, kappa, V domains shown)
VH: QVTLKESGPGILQPTQTLTLTCTFSGFSLSTVGMGVGWSRQPSGKGLEWLAHIWWDDEDKYYNPALKSRLTITKDTSKNQVFLKITNVDTADTATYYCTRIGTAQATDALDYWGQGTLVTVSS
VL: DIVMTQSALSLPVTPGEPVSISCRSSKSLLHSNGNTYLYWFLQKPGQSPQRLIYYMSNLASGVPDRFSGSGSGTDFTLKISRVEAEDVGVYYCMQSLEYPLTFGGGTKLEIKR
As for B2, in test [1], the Kd amounted to 8.7 nM, the koff came out at 0.0025 s⁻¹ and the association rate constant (kon) is 287000 M⁻¹ s⁻¹.

B3: 18C6 H2L2 humanized antibody (antibody, human IgG1, kappa, V domains shown)
VH: QVTLKESGPTLVKPTQTLTLTCTFSGFSLSTVGMGVGWSRQPSGKGLEWLAHIWWDDEDKYYNPALKSRLTITKDTSKNQVVLTITNVDPVDTATYYCTRIGTAQATDALDYWGQGTLVTVSS
VL: DIVMTQSALSLPVTPGEPVSISCRSSKSLLHSNGNTYLYWFLQKPGQSPQRLIYYMSNLASGVPDRFSGSGSGTDFTLKISRVEAEDVGVYYCMQSLEYPLTFGGGTKLEIKR
In test [1], B3 came in with a Kd of 9.2 nM, a koff of 0.004 s⁻¹ and a kon of 433000 M⁻¹ s⁻¹.

B4: 18C6 H2L1 humanized antibody (antibody, human IgG1, kappa, V domains shown)
VH: QVTLKESGPTLVKPTQTLTLTCTFSGFSLSTVGMGVGWSRQPSGKGLEWLAHIWWDDEDKYYNPALKSRLTITKDTSKNQVVLTITNVDPVDTATYYCTRIGTAQATDALDYWGQGTLVTVSS
VL: DIVMTQSAPSVPVTPGESVSISCRSSKSLLHSNGNTYLYWFLQKPGQSPQRLIYYMSNLASGVPDRFSGRGSGTDFTLKISRVEAEDVGVYYCMQSLEYPLTFGGGTKLEIKR
In the case of B4, in test [1], binding was put at a Kd of 9.9 nM, the dissociation rate constant (koff) worked out at 0.0054 s⁻¹ and the kon was 549000 M⁻¹ s⁻¹.

B5: humanized variant of 4H11 (hu4H11), DFO immunoconjugate (antibody, V domains shown)
VH: EVKLQESGGGFVKPGGSLRVSCAASGFTFSSYAMSWVRLAPEMRLEWVATISSAGGYIFYSDSVQGRFTISRDNAKNSLHLQMGSLRSGDTAMYYCARQGFGNYGDYYAMDYWGQGTTVTVSS
VL: DIELTQSPSSLAVSAGERVTMNCKSSQSLLNSRTRKNQLAWYQQKPGQSPELLIYWASTRQSGVPDRFSGSGSGTDFTLTISSVQAEDVAVYYCQQSYNLLTFGPGTKLEIKR
modifications: p-SCN-Bn-DFO on lysine epsilon-amines, ~1 DFO conjugated per antibody; 89Zr-labelled where named [^89Zr]Zr-DFO-hu4H11
notes: both entries are variable regions (H1 and L1); Full-length antibody; also called DFO-hu4H11; [^89Zr]Zr-DFO-hu4H11
For the molecule B5, the binding result in test [2] is listed as “binds”.

B6: 4H11-H1L1 hIgG (antibody)
heavy: not shown
light: DIELTQSPSSLAVSAGERVTMNCKSSQSLLNSRTRKNQLAWYQQKPGQSPELLIYWASTRQSGVPDRFSGSGSGTDFTLTISSVQAEDVAVYYCQQSYNLLTFGPGTKLEIKRTVAAPSVFIFPPSDEQLKSGTASVVCLLNNFYPREAKVQWKVDNALQSGNSQESVTEQDSKDSTYSLSSTLTLSKADYEKHKVYACEVTHQGLSSPVTKSFNRGEC
notes: also called humanized 4H11 H1L1
B6: in test [3], the Kd was 1.57 nM, the koff amounted to 0.000146 s⁻¹ and the kon was found to be 92700 M⁻¹ s⁻¹.

B7: 4H11-H1L2 hIgG (antibody)
heavy: not shown
light: DIVLTQSPDSLAVSLGERVTMNCKSSQSLLNSRTRKNQLAWYQQKPGQSPELLIYWASTRQSGVPDRFSGSGSGTDFTLTISSVQAEDVAVYYCQQSYNLLTFGQGTKLEIKRTVAAPSVFIFPPSDEQLKSGTASVVCLLNNFYPREAKVQWKVDNALQSGNSQESVTEQDSKDSTYSLSSTLTLSKADYEKHKVYACEVTHQGLSSPVTKSFNRGEC
notes: also called H1L2 humanized 4H11 antibody
In test [3], B7 showed a Kd of 2.19 nM, a koff of 0.000198 s⁻¹ and a kon of 90400 M⁻¹ s⁻¹.

B8: 4H11-H2L2 hIgG (antibody)
heavy: not shown
light: DIVLTQSPDSLAVSLGERVTMNCKSSQSLLNSRTRKNQLAWYQQKPGQSPELLIYWASTRQSGVPDRFSGSGSGTDFTLTISSVQAEDVAVYYCQQSYNLLTFGQGTKLEIKRTVAAPSVFIFPPSDEQLKSGTASVVCLLNNFYPREAKVQWKVDNALQSGNSQESVTEQDSKDSTYSLSSTLTLSKADYEKHKVYACEVTHQGLSSPVTKSFNRGEC
As to B8, the binding result in test [4] is “binds”. For the same molecule, in test [3], the affinity, expressed as Kd, was 2.37 nM; the koff worked out at 0.000175 s⁻¹; the kon was determined as 73800 M⁻¹ s⁻¹.

B9: 4H11-H2L1 hIgG (antibody)
heavy: not shown
light: DIELTQSPSSLAVSAGERVTMNCKSSQSLLNSRTRKNQLAWYQQKPGQSPELLIYWASTRQSGVPDRFSGSGSGTDFTLTISSVQAEDVAVYYCQQSYNLLTFGPGTKLEIKRTVAAPSVFIFPPSDEQLKSGTASVVCLLNNFYPREAKVQWKVDNALQSGNSQESVTEQDSKDSTYSLSSTLTLSKADYEKHKVYACEVTHQGLSSPVTKSFNRGEC
On to B9, for which, in test [3], the Kd was found to be 1.33 nM, the koff was 0.000101 s⁻¹ and the kon was found to be 76100 M⁻¹ s⁻¹. Also, in test [5], the binding result is “binds”.
